According to paper PMC8302205:

Substrate: C[N+](C)(C)[C@@H](Cc1cnc[nH]1)C(=O)[O-]
Test: purified protein
Type: biochemical, Chlorobium limicola
Settings: 0.116 mM K2Sx, 50 mM KPi pH 8.0, 25 °C

| Protein | Km [µM] | kcat [s⁻¹] | Km (EanB C412-only variant) [µM] | kcat (EanB C412-only variant) [s⁻¹] |
| --- | --- | --- | --- | --- |
| EanB (Chlorobium limicola DSM 245) (protein) MQNKNFRAPQSEAIGILYKLIETGSKHKNMYDHTEITTDSLLALLGSEKVKIIDVRSADAYNGWRMRGEVRGGHIKGAKSLPAKWLTDPEWLNIVRFKQIRPEDAIVLYGYTPEECEQTATRFKENGYNNVSVFHRFHPDWTGNDAFPMDRLEQYNRLVPAEWVNGLISGEEIPEYDNDTFIVCHAHYRNRDAYLSGHIPGATDMDTLALESPETWNRRTPEELKKALEEHGITASTTVVLYGKFMHPDNADEFPGSAAGHIGAIRLAFIMMYAGVEDVRVLNGGYQSWTDAGFAISKDDVPKTTVPEFGAPIPSRPEFAVDIDEAKEMLQSEDSDLVCVRSYPEYIGEVSGYNYIKKKGRIPGAIFAECGSDAYHMENYRNHDHTTREYHEIEDIWAKSGIIPKKHLAFYCGTGWRGSEAWFNALLMGWPRVSVYDGGWFEWSNDPENPYETGVPK | 69.7 ± 8.7 | 0.0113 ± 0.00017 | – | – |
| EanB (Chlorobium limicola DSM 245; C116A/C184A/C339A/C370A) (protein) MQNKNFRAPQSEAIGILYKLIETGSKHKNMYDHTEITTDSLLALLGSEKVKIIDVRSADAYNGWRMRGEVRGGHIKGAKSLPAKWLTDPEWLNIVRFKQIRPEDAIVLYGYTPEEAEQTATRFKENGYNNVSVFHRFHPDWTGNDAFPMDRLEQYNRLVPAEWVNGLISGEEIPEYDNDTFIVAHAHYRNRDAYLSGHIPGATDMDTLALESPETWNRRTPEELKKALEEHGITASTTVVLYGKFMHPDNADEFPGSAAGHIGAIRLAFIMMYAGVEDVRVLNGGYQSWTDAGFAISKDDVPKTTVPEFGAPIPSRPEFAVDIDEAKEMLQSEDSDLVAVRSYPEYIGEVSGYNYIKKKGRIPGAIFAEAGSDAYHMENYRNHDHTTREYHEIEDIWAKSGIIPKKHLAFYCGTGWRGSEAWFNALLMGWPRVSVYDGGWFEWSNDPENPYETGVPK | – | – | 65.9 ± 3.4 | 0.0025 ± 0.00017 |
